Source: paper PMC11055677 (Cell, 2024)

B1: SPATA5, full-length wild type, subunit of the reconstituted 55LCC complex (enzyme, human, UniProt Q8NB90 1-893, looked up)
chain: MSSKKNRKRLNQSAENGSSLPSAASSCAEARAPSAGSDFAATSGTLTVTNLLEKVDDKIPKTFQNSLIHLGLNTMKSANICIGRPVLLTSLNGKQEVYTAWPMAGFPGGKVGLSEMAQKNVGVRPGDAIQVQPLVGAVLQAEEMDVALSDKDMEINEEELTGCILRKLDGKIVLPGNFLYCTFYGRPYKLQVLRVKGADGMILGGPQSDSDTDAQRMAFEQSSMETSSLELSLQLSQLDLEDTQIPTSRSTPYKPIDDRITNKASDVLLDVTQSPGDGSGLMLEEVTGLKCNFESAREGNEQLTEEERLLKFSIGAKCNTDTFYFISSTTRVNFTEIDKNSKEQDNQFKVTYDMIGGLSSQLKAIREIIELPLKQPELFKSYGIPAPRGVLLYGPPGTGKTMIARAVANEVGAYVSVINGPEIISKFYGETEAKLRQIFAEATLRHPSIIFIDELDALCPKREGAQNEVEKRVVASLLTLMDGIGSEVSEGQVLVLGATNRPHALDAALRRPGRFDKEIEIGVPNAQDRLDILQKLLRRVPHLLTEAELLQLANSAHGYVGADLKVLCNEAGLCALRRILKKQPNLPDVKVAGLVKITLKDFLQAMNDIRPSAMREIAIDVPNVSWSDIGGLESIKLKLEQAVEWPLKHPESFIRMGIQPPKGVLLYGPPGCSKTMIAKALANESGLNFLAIKGPELMNKYVGESERAVRETFRKARAVAPSIIFFDELDALAVERGSSLGAGNVADRVLAQLLTEMDGIEQLKDVTILAATNRPDRIDKALMRPGRIDRIIYVPLPDAATRREIFKLQFHSMPVSNEVDLDELILQTDAYSGAEIVAVCREAALLALEEDIQANLIMKRHFTQALSTVTPRIPESLRRFYEDYQEKSGLHTL
B3: CINP, full-length wild type, subunit of the reconstituted 55LCC complex (natural protein, human, UniProt Q9BW66 1-212, looked up)
chain: MEAKTLGTVTPRKPVLSVSARKIKDNAADWHNLILKWETLNDAGFTTANNIANLKISLLNKDKIELDSSSPASKENEEKVCLEYNEELEKLCEELQATLDGLTKIQVKMEKLSSTTKGICELENYHYGEESKRPPLFHTWPTTHFYEVSHKLLEMYRKELLLKRTVAKELAHTGDPDLTLSYLSMWLHQPYVESDSRLHLESMLLETGHRAL

Tests used:
[1] = biological target: the molecule itself; assay: cryo-EM structure; reconstituted 55LCC incubated with 5 mM ATPγS, 0.01% fluorinated octyl maltoside; AlphaFold 2 models rigid-body fitted into the composite map
[2] = biological target: B3; assay: as above; settings: both partners purified
[3] = biological target: B1; assay: mass photometry; reconstituted 55LCC, 120 nM final, 25 mM Tris pH 7.5, 400 mM NaCl, with 2 mM ADP or after addition of 5 mM ATPγS (more of the 55LCC peak with ATPγS); settings: both partners purified
[4] = biological target: T1, C1orf109, untagged, of the purified C1orf109-CINP sub-complex (human, UniProt Q9NX04 1-203); assay: native MS; untagged proteins in 500 mM ammonium acetate; 12 μM C1orf109, 20 μM CINP, 20 μM C1orf109-CINP complex; settings: both partners purified
T1 sequence (looked up): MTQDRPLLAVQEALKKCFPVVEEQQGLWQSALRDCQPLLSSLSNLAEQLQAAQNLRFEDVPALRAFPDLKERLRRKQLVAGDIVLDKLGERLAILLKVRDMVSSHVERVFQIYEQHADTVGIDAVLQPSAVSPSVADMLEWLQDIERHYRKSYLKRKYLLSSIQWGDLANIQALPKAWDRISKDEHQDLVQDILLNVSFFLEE

## B1
[1]
  binding result: binds

B2: C1orf109, full-length wild type, subunit of the reconstituted 55LCC complex (natural protein, human, UniProt Q9NX04 1-203, looked up)
chain: MTQDRPLLAVQEALKKCFPVVEEQQGLWQSALRDCQPLLSSLSNLAEQLQAAQNLRFEDVPALRAFPDLKERLRRKQLVAGDIVLDKLGERLAILLKVRDMVSSHVERVFQIYEQHADTVGIDAVLQPSAVSPSVADMLEWLQDIERHYRKSYLKRKYLLSSIQWGDLANIQALPKAWDRISKDEHQDLVQDILLNVSFFLEE
[2]
  binding result: binds

## B3
[3]
  binding result: binds

B4: CINP, untagged, of the purified C1orf109-CINP sub-complex (natural protein, human, UniProt Q9BW66 1-212, looked up)
chain: MEAKTLGTVTPRKPVLSVSARKIKDNAADWHNLILKWETLNDAGFTTANNIANLKISLLNKDKIELDSSSPASKENEEKVCLEYNEELEKLCEELQATLDGLTKIQVKMEKLSSTTKGICELENYHYGEESKRPPLFHTWPTTHFYEVSHKLLEMYRKELLLKRTVAKELAHTGDPDLTLSYLSMWLHQPYVESDSRLHLESMLLETGHRAL
[4]
  stoichiometry N: 1
